The record followed here is patent publication US20190352390A1.

This assay addresses IL-37 expressed by splenocytes of IL-37 transgenic (IL-37tg) mice (human), Q9NZH6. Nature of the assay: cell-based or functional assay.

IL-37 expressed by splenocytes of IL-37 transgenic (IL-37tg) mice (human), Q9NZH6, sequence (Q9NZH6 whole entry): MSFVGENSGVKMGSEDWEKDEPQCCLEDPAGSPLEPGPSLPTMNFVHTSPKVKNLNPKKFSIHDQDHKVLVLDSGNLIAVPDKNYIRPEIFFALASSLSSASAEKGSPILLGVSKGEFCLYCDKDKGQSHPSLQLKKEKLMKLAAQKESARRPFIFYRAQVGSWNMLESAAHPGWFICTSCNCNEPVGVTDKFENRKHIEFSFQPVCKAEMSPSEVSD

B1: Antibody RF3 (antibody, V domains shown)
VL: DVVMTQTPLSLPVSLGDQASISCRSSQSLVHSNGNTYLHWYLQKPGQSPKLLIYIVSNRFSGVPDRFGGSGSGTDFTLKISRVEAEDLGVYFCSQSTHIPYTFGGGTKLEMK
VH: QVQLQQPGAELVRPGASVKLSCKASGYTFTNYWMNWWKQRPGQGLEWIGMIDPSDSETHYNQVFKDKATLTVDISSTTAYMHLSSLTSEDSAVYYCARDFGWGQGTLVTVSA
Consider B1, for which the IL-6 abundance in supernatant of LPS-stimulated IL-37tg mouse splenocytes (ELISA) was < 40%.

B2: Antibody RF1 (antibody, V domains shown)
VL: DVVMTQTPLSLPVSLGDQASMSCRSSQSLVHSNGDSYLHWYLQKPGQSPKLLIYKVSNRLSGVPDRFSGSGSGTDFTLKISRVEAEDLGIYFCSQSTHVPYTFGGGTKLEIK
VH: QVQLQQPGAELVKPGASVKMSCKASGYTFTNYWLHWVMQRPGQGLEWIGMIDPSDSFTTYNQKFKGKATLTVDTSSSTAFMQLSSLTSEDSAVYYCTTVDHWGRGTTLTVSS
As for B2, the IL-6 abundance in supernatant of LPS-stimulated IL-37tg mouse splenocytes (ELISA) is < 40%.
